Patent US20260265390A1 (SHANDONG SIMCERE BIOPHARMACEUTICAL, published 2026)
Changes are numbered by the printed parent chain. Where “and” joins values, the source holds several entries; their conditions need not be identical. Equal values may be shown once.

B1: antiFITC×CD3-Hab01 (negative control antibody, prepared internally) (bispecific antibody, human IgG4 S228P, kappa, F234A L235A)
heavy: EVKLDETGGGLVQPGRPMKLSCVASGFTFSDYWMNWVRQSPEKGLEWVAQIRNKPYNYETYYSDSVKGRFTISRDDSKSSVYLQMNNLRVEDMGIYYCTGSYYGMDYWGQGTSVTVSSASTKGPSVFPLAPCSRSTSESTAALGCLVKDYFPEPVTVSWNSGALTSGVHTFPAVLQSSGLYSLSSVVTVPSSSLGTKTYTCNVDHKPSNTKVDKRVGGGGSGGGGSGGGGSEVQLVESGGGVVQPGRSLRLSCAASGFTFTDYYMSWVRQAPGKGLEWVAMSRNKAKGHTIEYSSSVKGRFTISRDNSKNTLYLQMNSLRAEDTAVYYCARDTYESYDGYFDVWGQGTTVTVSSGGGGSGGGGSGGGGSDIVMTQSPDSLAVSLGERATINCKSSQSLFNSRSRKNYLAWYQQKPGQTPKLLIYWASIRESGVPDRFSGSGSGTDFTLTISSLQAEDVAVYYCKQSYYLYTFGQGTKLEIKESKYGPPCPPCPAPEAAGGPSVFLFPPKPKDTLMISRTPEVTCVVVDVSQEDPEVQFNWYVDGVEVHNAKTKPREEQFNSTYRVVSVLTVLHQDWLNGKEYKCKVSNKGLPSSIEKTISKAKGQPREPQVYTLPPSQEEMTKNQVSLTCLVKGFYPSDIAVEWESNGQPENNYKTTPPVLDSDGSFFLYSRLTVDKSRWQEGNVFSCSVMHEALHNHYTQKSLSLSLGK
light: DVVMTQTPLSLPVSLGDQASISCRSSQSLVHSNGNTYLRWYLQKPGQSPKVLIYKVSNRFSGVPDRFSGSGSGTDFTLKISRVEAEDLGVYFCSQSTHVPWTFGGGTKLEIKRTVAAPSVFIFPPSDEQLKSGTASVVCLLNNFYPREAKVQWKVDNALQSGNSQESVTEQDSKDSTYSLSSTLTLSKADYEKHKVYACEVTHQGLSSPVTKSFNRGEC
notes: Negative control for the tumor antigens
B2: JNJ7564 (bispecific antibody targeting GPRC5D and CD3, Johnson & Johnson, WO 2019220368 A1) (bispecific antibody, human IgG4 S228P, kappa, lambda, F234A L235A)
heavy 1: not shown
light 1: DIQMTQSPSSLSASVGDRVTITCKASQNVATHVGWYQQKPGKAPKRLIYSASYRYSGVPSRFSGSGSGTEFTLTISNLQPEDFATYYCQQYNRYPYTFGQGTKLEIKRTVAAPSVFIFPPSDEQLKSGTASVVCLLNNFYPREAKVQWKVDNALQSGNSQESVTEQDSKDSTYSLSSTLTLSKADYEKHKVYACEVTHQGLSSPVTKSFNRGEC
heavy 2: EVQLVESGGGLVQPGGSLRLSCAASGFTFNTYAMNWVRQAPGKGLEWVARIRSKYNNYATYYAASVKGRFTISRDDSKNSLYLQMNSLKTEDTAVYYCARHGNFGNSYVSWFAYWGQGTLVTVSSASTKGPSVFPLAPCSRSTSESTAALGCLVKDYFPEPVTVSWNSGALTSGVHTFPAVLQSSGLYSLSSVVTVPSSSLGTKTYTCNVDHKPSNTKVDKRVESKYGPPCPPCPAPEAAGGPSVFLFPPKPKDTLMISRTPEVTCVVVDVSQEDPEVQFNWYVDGVEVHNAKTKPREEQFNSTYRVVSVLTVLHQDWLNGKEYKCKVSNKGLPSSIEKTISKAKGQPREPQVYTLPPSQEEMTKNQVSLTCLVKGFYPSDIAVEWESNGQPENNYKTTPPVLDSDGSFLLYSKLTVDKSRWQEGNVFSCSVMHEALHNHYTQKSLSLSLGK
light 2: QTVVTQEPSLTVSPGGTVTLTCRSSTGAVTTSNYANWVQQKPGQAPRGLIGGTNKRAPGTPARFSGSLLGGKAALTLSGVQPEDEAEYYCALWYSNLWVFGGGTKLTVLGQPKAAPSVTLFPPSSEELQANKATLVCLISDFYPGAVTVAWKADSSPVKAGVETTTPSKQSNNKYAASSYLSLTPEQWKSHRSYSCQVTHEGSTVEKTVAPTECS
notes: Positive control, made by reduction and reoxidation of the two monospecific antibodies
B3: REGN5459 (bispecific antibody targeting BCMA and CD3, Regeneron, WO 2020018820 A1) (bispecific antibody, human IgG4 S228P, kappa)
heavy 1: EVQLVESGGGLVQPGGSLRLSCAASGFTFSNFWMTWVRQAPGKGLEWVANMNQDGSEKYYVDSVKGRFTISRDNAKSSLYLQMNSLRAEDTAVYYCARDREYCISTSCYDDFDYWGQGTLVTVSSASTKGPSVFPLAPCSRSTSESTAALGCLVKDYFPEPVTVSWNSGALTSGVHTFPAVLQSSGLYSLSSVVTVPSSSLGTKTYTCNVDHKPSNTKVDKRVESKYGPPCPPCPAPPVAGPSVFLFPPKPKDTLMISRTPEVTCVVVDVSQEDPEVQFNWYVDGVEVHNAKTKPREEQFNSTYRVVSVLTVLHQDWLNGKEYKCKVSNKGLPSSIEKTISKAKGQPREPQVYTLPPSQEEMTKNQVSLTCLVKGFYPSDIAVEWESNGQPENNYKTTPPVLDSDGSFFLYSRLTVDKSRWQEGNVFSCSVMHEALHNHYTQKSLSLSLGK
heavy 2: EVQLVESGGGLVQPGRSLRLSCAASGFTFDDYSMHWVRQAPGKGLEWVSGISWNSGSIGYADSVKGRFTISRDNAKNSLYLQMNSLRAEDTALYYCAKYGSGYGKFYYYGMDVWGQGTTVTVSSASTKGPSVFPLAPCSRSTSESTAALGCLVKDYFPEPVTVSWNSGALTSGVHTFPAVLQSSGLYSLSSVVTVPSSSLGTKTYTCNVDHKPSNTKVDKRVESKYGPPCPPCPAPPVAGPSVFLFPPKPKDTLMISRTPEVTCVVVDVSQEDPEVQFNWYVDGVEVHNAKTKPREEQFNSTYRVVSVLTVLHQDWLNGKEYKCKVSNKGLPSSIEKTISKAKGQPREPQVYTLPPSQEEMTKNQVSLTCLVKGFYPSDIAVEWESNGQPENNYKTTPPVLDSDGSFFLYSRLTVDKSRWQEGNVFSCSVMHEALHNRFTQKSLSLSLGK
light: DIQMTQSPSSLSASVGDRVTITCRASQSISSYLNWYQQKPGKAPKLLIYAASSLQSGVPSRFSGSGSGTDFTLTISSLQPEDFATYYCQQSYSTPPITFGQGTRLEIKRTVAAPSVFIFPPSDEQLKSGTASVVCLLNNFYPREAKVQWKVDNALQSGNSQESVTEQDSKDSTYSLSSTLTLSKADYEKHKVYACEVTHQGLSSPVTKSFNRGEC
notes: Positive control, expressed in Expi293F by the applicants; also called RGEN5459
B4: Tri-65 anti-BCMA-GPRC5D-CD3 trispecific antibody (other)
VHH: EVQLVESGGGLVQPGGSLRLSCAASESISSIHIMAWYRQAPGKQRELVAGIRNDGSTVYVDSVKGRFTISRDNAKNSLYLQMNSLRAEDTAVYYCNADQGFGSYSEWERRSRWGQGTTVTVSS
VH 1: EVQLVQSGAEVKKPGASVKVSCKTSGYIFTNFGITWVRQAPGQRLEWMGENYPRRINTYYNEKFKGRVTITADKSASTAYMELSSLRSEDTAVYYCSRKDIFGLSYALDYWGQGTTVTVSS
VL 1: DIQMTQSPSSLSASVGDRVTITCKASQNVGTNVAWYQHKPGKSPKALIYSASYQYSGVPSRFSGSGSGTDFTLTISSLQPEDVATYICQQYKNYPYTFGGGTKVEIK
VH 2: EVQLVESGGGVVQPGRSLRLSCAASGFTFTDYYMSWVRQAPGKGLEWVAMSRNKAKGHTIEYSSSVKGRFTISRDNSKNTLYLQMNSLRAEDTAVYYCARDTYESYDGYFDVWGQGTTVTVSS
VL 2: DIVMTQSPDSLAVSLGERATINCKSSQSLFNSRSRKNYLAWYQQKPGQTPKLLIYWASIRESGVPDRFSGSGSGTDFTLTISSLQAEDVAVYYCKQSYYLYTFGQGTKLEIK
chain 1: ESKYGPPCPPCPAPEAAGGPSVFLFPPKPKDTLMISRTPEVTCVVVDVSQEDPEVQFNWYVDGVEVHNAKTKPREEQFNSTYRVVSVLTVLHQDWLNGKEYKCKVSNKGLPSSIEKTISKAKGQPREPQVYTLPPSQEEMTKNQVSLWCLVKGFYPSDIAVEWESNGQPENNYKTTPPVLDSDGSFFLYSRLTVDKSRWQEGNVFSCSVMHEALHNHYTQKSLSLSLG
chain 2: B4 chain 1 with W148S, L150A, Y189V
notes: Trispecific antibody; Asymmetric (purification method C)
B5: Tri-38 anti-BCMA-GPRC5D-CD3 trispecific antibody (other)
VHH: EVQLVESGGGLVQPGGSLRLSCSASGFTLDYYMIGWFRQAPGKEREGLSSISPADGSTYYADSVKGRFTISRDSSKNTVYLQMNSLRAEDTAVYYCAAGNEATISWGFGPWEYDYWGQGTMVTVSS
VH 1: EVQLVQSGAEVKKPGSSVKVSCKASGYTFTSYGISWVRQAPGQGLEWMGEIYPRSGNTYYNEKFKGRVTLTADKSTSTAYMELSSLRSEDTAVYYCARGRAYGRNYPMDYWGQGTTVTVSS
VL 1: EIVLTQSPATLSLSPGERATLSCRASQSIGTSIHWYQQKPGQSPRLLIKYASESISGIPARFSGSGSGTDFTLTISSLEPEDFAVYYCQQSNSWPYTFGGGTKVEIK
VH 2: B4 VH 2
VL 2: B4 VL 2
chain 1: EPKSSDKTHTCPPCPAPEAAGGPSVFLFPPKPKDTLMISRTPEVTCVVVDVSHEDPEVKFNWYVDGVEVHNAKTKPREEQYNSTYRVVSVLTVLHQDWLNGKEYKCKVSNKALPAPIEKTISKAKGQPREPQVYTLPPSREEMTKNQVSLWCLVKGFYPSDIAVEWESNGQPENNYKTTPPVLDSDGSFFLYSKLTVDKSRWQQGNVFSCSVMHEALHNHYTQKSLSLSPG
chain 2: B5 chain 1 with W151S, L153A, Y192V
notes: Trispecific antibody; Asymmetric (purification method B)
B6: Tri-41 anti-BCMA-GPRC5D-CD3 trispecific antibody (other)
VHH: B5 VHH
VH 1: B5 VH 1
VL 1: B5 VL 1
VH 2: B4 VH 2
VL 2: B4 VL 2
chain 1: B5 chain 1
chain 2: B5 chain 1 with W151S, L153A, Y192V
notes: as for B5
B7: Tri-66 anti-BCMA-GPRC5D-CD3 trispecific antibody (other)
VHH: B4 VHH
VH 1: B4 VH 1
VL 1: B4 VL 1
VH 2: B4 VH 2
VL 2: B4 VL 2
chain 1: B4 chain 1
chain 2: B4 chain 1 with W148S, L150A, Y189V
notes: as for B4

What follows are binders tested against T1, monkey CD3, on activated monkey PBMC (monkey) (assay: FACS, activated monkey PBMC).
T1 construct: whole, on cells
T1 sequence (Q95LI5 22-198): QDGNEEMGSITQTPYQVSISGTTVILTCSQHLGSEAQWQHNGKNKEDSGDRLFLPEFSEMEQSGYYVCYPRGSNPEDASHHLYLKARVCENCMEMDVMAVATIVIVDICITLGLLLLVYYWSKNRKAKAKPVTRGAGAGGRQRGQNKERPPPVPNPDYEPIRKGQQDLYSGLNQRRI

Binder | EC50
B1 | 15.2 nM and 12.4 nM
B2 | 5.79 nM and 5.72 nM
B3 | 161 nM

The binders below were run against T2, human GPRC5D, expressed on cells (human, UniProt Q9NZD1 1-345) (assay: FACS, CHOK1-human GPRC5D cells).
T2 construct: whole, on cells; Overexpressed on CHOK1 cells; also called CHOK1-human GPRC5D cells
Procedure: (§1) Flp-inCHO-human BCMA cells and CHOK1-human GPRC5D cells were scale-up cultured in T-75 cell culture flask to the logarithmic growth phase, respectively, and the cells were pipetted to obtain a single cell suspension. After the cells were counted and centrifuged, the cell precipitate was resuspended to 2×10⁶ cells per milliliter with a FACS buffer (PBS+2% fetal bovine serum). The suspension was added to a 96-well FACS reaction plate at 50 μl/well. 8 concentrations of the anti-BCMA-GPRC5D-CD3 antibodies or control antibodies were added at 50 μl/well, wherein gradient dilution was performed at a dilution ratio of 5 from a concentration of 100 nM. The cells were incubated at 4° C. for 1 h. The obtained mixture was centrifuged and washed 3 times with a PBS buffer. […] The obtained mixture was centrifuged and washed 3 times with a PBS buffer. 100 μl of the mixture was taken for detection and result analysis by FACS (FACS Canto™, purchased from BD Company). Data analysis was performed by software (FlowJo) to obtain the mean fluorescence intensity (MFI) of the cells. Then, a software (GraphPad Prism8) was used for analysis, data fitting and EC50 calculation.

T2 sequence (Q9NZD1 whole entry): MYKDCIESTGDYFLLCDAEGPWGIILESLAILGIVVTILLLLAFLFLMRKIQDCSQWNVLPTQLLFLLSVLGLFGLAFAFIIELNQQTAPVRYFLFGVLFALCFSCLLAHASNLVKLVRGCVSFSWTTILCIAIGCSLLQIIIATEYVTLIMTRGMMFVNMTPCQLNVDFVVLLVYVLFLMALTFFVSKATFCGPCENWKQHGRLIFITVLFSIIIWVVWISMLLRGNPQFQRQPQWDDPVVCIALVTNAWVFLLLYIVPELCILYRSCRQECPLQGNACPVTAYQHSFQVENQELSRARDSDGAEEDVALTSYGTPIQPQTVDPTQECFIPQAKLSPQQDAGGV

Binder | EC50
B4 | 1.66 nM
B5 | 2.06 nM
B6 | 4.3 nM
B7 | 1.53 nM

These binders were tested against T3, human BCMA (B cell maturation antigen), expressed on cells (human, UniProt Q02223 1-184) (assay: FACS, Flp-inCHO-human BCMA cells).
T3 construct: whole, on cells; Overexpressed on Flp-in CHO cells; also called Flp-inCHO-human BCMA cells; CD269
T3 sequence (looked up): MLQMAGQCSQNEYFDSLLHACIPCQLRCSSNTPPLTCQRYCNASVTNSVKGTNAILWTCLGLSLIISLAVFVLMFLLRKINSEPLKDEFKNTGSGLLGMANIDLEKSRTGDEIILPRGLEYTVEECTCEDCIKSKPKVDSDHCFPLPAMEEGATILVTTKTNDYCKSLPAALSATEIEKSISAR
Procedure: as §1

Binder | EC50
B4 | 2.54 nM
B5 | 4.43 nM
B6 | 1.52 nM
B7 | 1.09 nM
